Results as given in patent US20130142788A1 (published 2013).
* marks the point of attachment. Biotin = O=C1N[C@H]2[C@H](CS[C@H]2CCCCC(=O)*)N1

Assays:
[1] = molecular target: T1, recombinant mature dimeric myostatin (human and mouse (mature sequences 100% …, UniProt O08689 268-376)); assay: ActRIIb receptor neutralisation ELISA: antibody pre-incubated with 2 nM biotinylated myostatin, binding to coated ActRIIb
T1 construct: also called GDF-8; mature myostatin
T1 sequence: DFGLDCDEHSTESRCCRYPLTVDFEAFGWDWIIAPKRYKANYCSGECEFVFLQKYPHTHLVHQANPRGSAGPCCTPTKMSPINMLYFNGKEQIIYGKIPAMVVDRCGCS
Method: Recombinant soluble ActRIIb (R&D Systems 339-RBB) was coated in wells of an ELISA plate at 1 μg/ml in carbonate buffer overnight at 4° C. Plates were blocked (see Block solution above at 2.3) and washed following standard ELISA protocols. In parallel, 2 nM biotinylated myostatin (in-house, as described in 1.1, biotinylated material) was pre-incubated with an antibody dilution series consisting of 10B3, 10B3C, and a negative control (IgG1 isotype control) for 2 hours at 37° C. The biotinylated myostatin:antibody reactions were then added to the ActRIIb coated plate for 1 hour at 37° C. Standard wash procedures were followed prior to addition of 1:1000 diluted streptavidin-HRP conjugate (Dako P0397) and a further 37° C. incubation for 1 hour. Plates were again washed and assayed at absorbance 490 nm following OPD substrate (Sigma) and acid stop solution treatment. Inhibition curves and IC50 values for the inhibition of myostatin activity are shown in FIG. 5 and Table 8 respectively.

[2] = molecular target: T1, recombinant mature dimeric myostatin; assay: BIAcore T100 SPR, antibody captured on anti-mouse IgG, myostatin analyte, all curves 1:1 model
Method: The affinity of 10B3 mouse parental and 10B3C for recombinant myostatin was assessed by BIAcore™ (surface plasmon resonance) analysis. Analysis was carried out by the use of a capture surface: anti-mouse IgG was coupled to a C1 chip by primary amine coupling for 10B3 mouse parental; and a protein A surface was created on a C1 chip by primary amine coupling for 10B3 chimera.
After capture, recombinant myostatin was passed over the surface at 64 nM, 16 nM, 4 nM, 1 nM, 0.25 nM and 0.0625 nM, with a buffer injection (i.e. 0 nM) used for double referencing. There was a regeneration step between each analyte injection, after which the new antibody capture event occurred before the next injection of myostatin. The data was analysed using both the 1:1 model and the Bivalent model inherent to the T100 machines analysis software (see Table 6). Both capture surfaces could be regenerated using 100 mM phosphoric acid, the work was carried out using HBS-EP as the running buffer and using 25° C. as the analysis temperature.

[3] = molecular target: T1, recombinant mature dimeric myostatin; assay: ActRIIb neutralisation ELISA: inhibition of 2 nM biotinylated myostatin binding to coated ActRIIb
How it was run: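 Soluble ActRIIb coated at 1 μg/ml; 2 nM biotinylated myostatin pre-incubated 30 min at 37° C with antibody dilution series, then bound to plate 1 h at 37° C. Bound myostatin detected with streptavidin-HRP, absorbance at 490 nm after acid stop.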

[4] = molecular target: T2, human myostatin pro-peptide dimer (human, UniProt O14793 25-266, limits assumed); assay: ELISA, antigen coated at 100 ng/well
T2 sequence: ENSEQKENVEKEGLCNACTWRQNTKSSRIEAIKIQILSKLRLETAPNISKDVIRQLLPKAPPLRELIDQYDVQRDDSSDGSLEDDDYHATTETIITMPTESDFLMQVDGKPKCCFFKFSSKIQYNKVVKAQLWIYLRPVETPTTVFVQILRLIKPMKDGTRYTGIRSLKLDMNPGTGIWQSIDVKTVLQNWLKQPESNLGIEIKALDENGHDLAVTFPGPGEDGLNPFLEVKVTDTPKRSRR
Method: The myostatin antigens were coated onto wells of an EIA/RIA plate (Costar) at 100 ng/well at 4° C. overnight in PBS, prior to blocking (PBS, 3% BSA) for 30 minutes at room temperature. Plates were washed (PBS, 1% BSA and 0.1% Tween20), prior to the addition of a dilution series of 10B3 in wash buffer and incubation for 2 hours at room temperature. Plates were again washed prior to addition of peroxidase-conjugated Affinipure F(ab′)2 fragment donkey anti-mouse IgG (Jackson Laboratories cat 715-036-151) diluted 1:10,000 in wash buffer and incubated for 1 hour at room temperature. A final wash step preceded addition of TMB substrate and colorimetric change which was stopped with Sulphuric acid and plates read at 450 nm.

[5] = molecular target: T3, myostatin artificial peptide No 37 (SGSGCCTPTKMSPINMLY) (cysteine pairing not given here); assay: SRU BIND biosensor, peptides captured on streptavidin plate
T3 construct: also called Peptide 37
T3 peptide: Biotin-SGSGCCTPTKMSPINMLY-NH2
Method: (§1) Work was carried out on an SRU BIND reader (SRU Biosystems). A streptavidin biosensor plate was washed, a baseline reading taken, and biotinylated peptides captured onto the streptavidin coated biosensor plate. The plate was washed again, and a new baseline reading taken, antibody was then added and binding monitored.

[6] = molecular target: T4, myostatin artificial peptide No 7 (SGSGSRCCRYPLTVDFEA) (cysteine pairing not given here); assay: as above
T4 construct: also called Peptide 7
T4 peptide: Biotin-SGSGSRCCRYPLTVDFEA-NH2
Method: as §1

[7] = molecular target: T5, myostatin artificial peptide No 3 (SGSGDCDEHSTESRCCRY) (cysteine pairing not given here); assay: as above
T5 construct: also called Peptide 3
T5 peptide: Biotin-SGSGDCDEHSTESRCCRY-NH2
Method: as §1

[8] = molecular target: T6, myostatin artificial peptide No 31 (SGSGVHQANPRGSAGPCC) (cysteine pairing not given here); assay: as above
T6 construct: also called Peptide 31
T6 peptide: Biotin-SGSGVHQANPRGSAGPCC-NH2
Method: as §1

[9] = molecular target: T7, myostatin artificial peptide No 41 (SGSGPINMLYFNGKEQII) (HELM PEPTIDE1{[O=C1N[C@H]2[C@H](CS[C@H]2CCCCC(=O)[*:2])N1].S.G.S.G.P.I.N.M.L.Y.F.N.G.K.E.Q.I.I.[am]}$$$$V2.0; SMILES …); assay: as above
T7 construct: also called Peptide 41
T7 peptide: SGSGPINMLYFNGKEQII
Method: as §1

B1: mouse monoclonal antibody 10B3 (antibody, mouse IgG2a, V domains shown)
VH: EVQLQQSGPELVKPGASVKISCKASGYSFTGYFMHWVKQSHGNILDWIGNIYPYNGVSNYNQRFKAKATLTVDKSSSTAYMELRSLTSEDSAVYYCARRYYYGTGPADWYFDVWGTGTTVTVSS
VL: DIKMTQSPSSMYASLRERVTITCKASQDINSYLSWFQQKPGKSPKTLIYRANRLVDGVPSRFSGSGSGQDYSLTISSLEYEDMGIYYCLQCDEFPLTFGAGTKLELK
notes: Murine IgG2a/k; also called 10B3 mouse parental; parental 10B3
With B1 the IC50 [1] was 0.132 µg/mL, the Kd [2] was 1 nM and the IC50 [3] was 0.172 nM. B1: no binding [4]; no binding [5]; no binding [6]. B1: no binding [7]; no binding [8]; no binding [9].
